Test results from article PMC8719716.

Assays:
[1] = molecular target: Plk1 (UniProt P70032); assay: reciprocal co-IP of tagged proteins, embryo lysates; conditions: reference: wild type CEP97; sites S634,S643,S649,S653
[2] = molecular target: Plk1 PB1 and PB2 domains (UniProt P70032); assay: as above; conditions: reference: wild type CEP97; sites S634,S643,S649,S653

Substance: CEP97 (from UniProt Q6GPJ8) CEP97 SA (S634A, S643A, S649A, S653A)
- binding against the reference [1]: weaker
- binding against the reference [2]: lost
